Assay results as given in patent publication US11739132B2, “Separation moieties and methods of use thereof” (Werewolf Therapeutics, Inc., priority 2019, dated 2023).

Test system: MC38 tumor cells
Test: MC38 tumor model, IFNα and IL-12 fusion proteins (Example 27C)
Type: in vivo, C57BL/6 mice
Details: ACP31 33-330 μg, ACP11 17.5-525 μg, ACP04 2 and 10 μg
Protocol: The MC38 cell line, a rapidly growing colon adenocarcinoma cell line that expresses MMP9 in vitro, was used. Using this tumor model, the ability of fusion proteins to affect tumor growth was examined.
Mice were anaesthetized with isoflurane for implant of cells to reduce the ulcerations. 308 CR female C57BL/6 mice were set up with 5×10^5 MC38 tumor cells in 0% Matrigel sc in flank. Cell Injection Volume was 0.1 mL/mouse. Mouse age at start date was 8 to 12 weeks. Pair matches were performed when tumors reach an average size of 100-150 mm^3 and begin treatment. Body weights were taken at initiation and then biweekly to the end. Caliper measurements were taken biweekly to the end. Any adverse reactions were to be reported immediately. […] Within a group with >20% weight loss, individuals hitting the individual body weight loss endpoint were euthanized. If the group treatment related body weight loss is recovered to within 10% of the original weights, dosing resumed at a lower dose or less frequent dosing schedule. Exceptions to non-treatment body weight % recovery were allowed on a case-by-case basis. […] Animals were monitored individually. […]
No compounds in salt form were used. […] The amount needed per week was calculated, aliquoted accordingly, and stored at −20 C. […]
For ACP11, ACP31, ACP131, the amount needed per week was calculated, aliquoted accordingly, and stored at −20 C. […]

B1: ACP04: human p40-murine p35-6xHis (protein)
chain: IWELKKDVYVVELDWYPDAPGEMVVLTCDTPEEDGITWTLDQSSEVLGSGKTLTIQVKEFGDAGQYTCHKGGEVLSHSLLLLHKKEDGIWSTDILKDQKEPKNKTFLRCEAKNYSGRFTCWWLTTISTDLTFSVKSSRGSSDPQGVTCGAATLSAERVRGDNKEYEYSVECQEDSACPAAEESLPIEVMVDAVHKLKYENYTSSFFIRDIIKPDPPKNLQLKPLKNSRQVEVSWEYPDTWSTPHSYFSLTFCVQVQGKSKREKKDRVFTDKTSATVICRKNASISVRAQDRYYSSSWSEWASVPCSGGGGSGGGGSGGGGSRVIPVSGPARCLSQSRNLLKTTDDMVKTAREKLKHYSCTAEDIDHEDITRDQTSTLKTCLPLELHKNESCLATRETSSTTRGSCLPPQKTSLMMTLCLGSIYEDLKMYQTEFQAINAALQNHNHQQIILDKGMLVAIDELMQSLNHNGETLRQKPPVGEADPYRVKMKLCILLHAFSTRVVTINRVMGYLSSAHHHHHH
Tumor volume over time: tumor volume decreasing over time in a dose-dependent manner
